From paper PMC3059340 (Analytical chemistry, 2011)

Biological target: T1, Recombinant human E-selectin/Fc chimera (human, UniProt P16581 22-556)
T1 sequence (looked up): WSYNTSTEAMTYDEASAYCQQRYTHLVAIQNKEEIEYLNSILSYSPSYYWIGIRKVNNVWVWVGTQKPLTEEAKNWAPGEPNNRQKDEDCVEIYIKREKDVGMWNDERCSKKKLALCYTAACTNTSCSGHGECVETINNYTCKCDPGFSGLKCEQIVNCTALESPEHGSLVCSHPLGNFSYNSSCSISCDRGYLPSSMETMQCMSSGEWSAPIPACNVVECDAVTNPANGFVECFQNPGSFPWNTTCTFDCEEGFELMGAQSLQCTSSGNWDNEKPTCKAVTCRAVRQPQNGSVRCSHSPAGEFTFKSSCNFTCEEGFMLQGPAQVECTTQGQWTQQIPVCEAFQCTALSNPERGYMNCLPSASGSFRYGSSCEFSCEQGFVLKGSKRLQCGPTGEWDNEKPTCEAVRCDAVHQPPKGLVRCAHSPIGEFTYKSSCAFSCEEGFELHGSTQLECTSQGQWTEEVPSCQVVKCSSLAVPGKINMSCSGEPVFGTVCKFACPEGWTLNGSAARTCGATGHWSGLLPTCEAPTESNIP
Test: SPR

- Ka: 3.18e+08 M⁻¹
- Kd: 3.4 nM
- koff: 0.0016 s⁻¹
- kon: 379000 M⁻¹ s⁻¹
Binder: SETTTGTSSNSSQSTSNSGLAPNPTNATTKAAG (natural protein, UniProt P25063 27-59, looked up) [Recombinant human CD24]
